Test results as given in US20090023672, “AGE-2 APTAMER” (KURUME UNIVERSITY, published 2009).

B1: AGE-2 aptamer 6 (ssDNA)
DNA: CCCGCCATTCCCCTACATAACACCTACCCATCTCCCTTCCCAGTTAATCACCGC
B2: AGE-2 aptamer 14 (ssDNA)
DNA: CTGAATACCAACGTACCCCCTCCCAAGTCCCCCTACCCACGCTAAACTCAACCTCA
B3: AGE-2 aptamer 15 (ssDNA)
DNA: TACAGCCCCCCAACCCACCACCGCCGTAGATAACCACCCACCAACGATATCCCACT
B4: AGE-2 aptamer 11 (ssDNA)
DNA: CCCAAGCACAATAGCCACACCCACGACCCACCCTCATATTCCGACCACGCTCCC
B5: AGE-2 aptamer 7 (ssDNA)
DNA: CCACACTGCACTAAACCAGCGTCCCGGACCATCACAACCTCTGCCCACTAGCCCCT
B6: AGE-2 aptamer 13 (ssDNA)
DNA: CCTCAACACACCTCTAACCAACCCTCAGCCCAGCACAACACCCCCCAAACCGACAC
B7: AGE-2 aptamer 4 (ssDNA)
DNA: CCAGCCTCGATACCATACCCACCAACCCAACCAGACTCCACACACCCACGCGTCTC
B8: AGE-2 aptamer 2 (ssDNA)
DNA: ACCACTGCACGACCCCCACCAGTCCCACTCGCAGCGTCCATGGCCCCCACGCCCCA
B9: AGE-2 aptamer 9 (ssDNA)
DNA: TAACTCACTCCATACTCACTTGCTGATTCGCCAACAACACACCCTTAAACAGTCCC
B10: AGE-2 aptamer 5 (ssDNA)
DNA: CAAGCGCTCCATCCACCGACATACCTACCAAACACTCTCCTTGCCCATAAAACCAC
B11: AGE-2 aptamer 3 (ssDNA)
DNA: CGCCCCCACACCACCGCCACGACCCCACAATCCCCCGAGGTCCCCCGCGTCCACAC
B12: AGE-2 aptamer 8 (ssDNA)
DNA: AACTAGCCCGAGCCACAATCCCATAACAAGCGTGACCACACTATCCTGTCTTCCC
B13: AGE-2 aptamer 10 (ssDNA)
DNA: ATAACCCCGACGTACACGCCAACTATGCCCACAACCCGCCATAACCCACCACCTTC

molecular target: AGE-2 (glyceraldehyde-derived advanced glycation end product of human serum albumin) (Homo sapiens, UniProt P02768 P02768:25-609, HSA glycated with D-glyceraldehyde at 37 C for 7 days, dialysed against PBS); test: AGE-2 fluorescence attenuation, 100 ug/mL AGE-2, 25 nM aptamer; details: tags: HSA from Sigma; immobilised on SulfoLink beads for SELEX
Sequence (P02768 25-609, stated change not applied, one chain of several): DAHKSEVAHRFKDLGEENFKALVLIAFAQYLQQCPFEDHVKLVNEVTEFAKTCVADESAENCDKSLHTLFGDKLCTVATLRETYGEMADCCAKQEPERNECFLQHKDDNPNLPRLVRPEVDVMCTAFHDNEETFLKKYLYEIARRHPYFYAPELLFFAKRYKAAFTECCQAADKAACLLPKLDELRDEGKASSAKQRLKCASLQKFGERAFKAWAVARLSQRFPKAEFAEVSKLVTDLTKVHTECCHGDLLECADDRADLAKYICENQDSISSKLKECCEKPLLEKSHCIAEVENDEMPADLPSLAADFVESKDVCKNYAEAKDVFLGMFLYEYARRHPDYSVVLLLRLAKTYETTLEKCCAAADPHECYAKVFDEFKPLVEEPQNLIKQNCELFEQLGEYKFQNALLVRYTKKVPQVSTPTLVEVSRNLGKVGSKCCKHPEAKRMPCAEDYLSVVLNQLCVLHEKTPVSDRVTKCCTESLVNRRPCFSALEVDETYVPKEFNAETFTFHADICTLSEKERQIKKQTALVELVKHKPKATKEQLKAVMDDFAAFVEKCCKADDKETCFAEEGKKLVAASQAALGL
Experimental: First, for measuring fluorescence properties of AGE-2, wavelengths of AGE-2 were determined for excitation and […] using a spectrofluorometer (FP-777: JASCO Corporation). […] Subsequently, the fluorescence intensity was measured with 25 to 100 μg/mL of AGE-2 at the excitation wavelength of 380 nm, and a calibration curve was prepared (FIG. 3A).
Then, to each aptamer (SEQ ID NOs: 1 to 15), 100 μg/mL of the AGE-2 was added at a final concentration of 25 to 100 nM, and the fluorescence intensity was measured (see FIGS. 3B and C). Based on attenuation in the fluorescence intensity of AGE-2 when the aptamer was added at 25 nM, the weight (ng) of the bound AGE-2 was calculated per mole (nmol) of the aptamer.

**Q.** B1 was tested. Which binding signal did it give?
**A.** 202 ng AGE-2 bound per nmol aptamer

**Q.** For B2, which binding signal is on record?
**A.** 158 ng AGE-2 bound per nmol aptamer

**Q.** With B3 as the binder, how does the binding signal read?
**A.** 271 ng AGE-2 bound per nmol aptamer

**Q.** How did the binding signal turn out when B4 was run?
**A.** 137 ng AGE-2 bound per nmol aptamer

**Q.** B5 was tested. Which binding signal did it give?
**A.** 146 ng AGE-2 bound per nmol aptamer

**Q.** For B6, which binding signal is on record?
**A.** 175 ng AGE-2 bound per nmol aptamer

**Q.** For B7, which binding signal is on record?
**A.** 210 ng AGE-2 bound per nmol aptamer

**Q.** B8 was tested. Which binding signal did it give?
**A.** 175 ng AGE-2 bound per nmol aptamer

**Q.** Which binding signal does the source give for B9 here?
**A.** 117 ng AGE-2 bound per nmol aptamer

**Q.** With B10 as the binder, how does the binding signal read?
**A.** 143 ng AGE-2 bound per nmol aptamer

**Q.** B11 was tested. Which binding signal did it give?
**A.** 260 ng AGE-2 bound per nmol aptamer

**Q.** With B12 as the binder, how does the binding signal read?
**A.** 175 ng AGE-2 bound per nmol aptamer

**Q.** B13 was tested. Which binding signal did it give?
**A.** 134 ng AGE-2 bound per nmol aptamer
